Test results: patent US20070111222

Tested on: T1, fluorogenic peptide CAGSGSGPR-AMC (AMC=7-amino-4-methyl-coumarin)
T1 sequence: CAGSGSGPR

Substance: trypsin
- release of fluorescent AMC (cleavage of the immobilized fluorogenic peptide): Adding trypsin to these disks results in the release of fluorescent AMC
